Test results reported in patent publication US20200062844A1 (Regeneron, published 2020).
Where a chain is given by its changes, count along the chain named.

Tests used:
[1] = target: T1, human FcεR1α expressed on cells (human, UniProt P12319 26-257); assay: cell-based or functional assay
T1 sequence (looked up): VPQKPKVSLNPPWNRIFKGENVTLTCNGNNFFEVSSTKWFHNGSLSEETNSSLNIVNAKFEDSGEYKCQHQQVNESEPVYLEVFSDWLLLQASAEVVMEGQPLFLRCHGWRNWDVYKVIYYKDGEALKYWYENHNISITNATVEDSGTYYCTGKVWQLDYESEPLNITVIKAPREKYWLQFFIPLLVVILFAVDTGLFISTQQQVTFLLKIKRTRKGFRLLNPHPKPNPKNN

[2] = target: T2, human CD3 expressed in Jurkat cells (human, UniProt P07766 23-207; P04234 22-171; P20963 22-164; P09693 23-182); assay: cell-based or functional assay
T2 sequence (P07766 23-207 limits assumed, chain 1 of 4): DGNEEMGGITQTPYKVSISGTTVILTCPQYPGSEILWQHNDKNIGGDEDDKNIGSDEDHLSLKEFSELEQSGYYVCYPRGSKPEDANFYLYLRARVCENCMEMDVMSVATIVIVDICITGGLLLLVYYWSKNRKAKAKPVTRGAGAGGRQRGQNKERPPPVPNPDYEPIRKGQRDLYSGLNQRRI
T2 sequence (P04234 22-171 limits assumed, chain 2 of 4): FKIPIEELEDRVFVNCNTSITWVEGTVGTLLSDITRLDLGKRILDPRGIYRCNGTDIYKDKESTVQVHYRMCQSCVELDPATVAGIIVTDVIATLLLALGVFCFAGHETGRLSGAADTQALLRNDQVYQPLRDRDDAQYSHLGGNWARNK
T2 sequence (P20963 22-164 limits assumed, chain 3 of 4): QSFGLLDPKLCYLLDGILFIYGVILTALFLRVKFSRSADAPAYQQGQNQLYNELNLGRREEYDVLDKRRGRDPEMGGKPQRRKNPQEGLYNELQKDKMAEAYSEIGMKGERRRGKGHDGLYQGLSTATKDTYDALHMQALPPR
T2 sequence (P09693 23-182 limits assumed, chain 4 of 4): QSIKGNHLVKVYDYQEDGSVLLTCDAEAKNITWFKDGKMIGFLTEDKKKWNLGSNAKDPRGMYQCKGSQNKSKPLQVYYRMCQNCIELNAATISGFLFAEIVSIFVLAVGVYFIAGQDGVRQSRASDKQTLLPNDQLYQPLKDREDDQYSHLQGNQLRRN

[3] = target: T2, human CD3 expressed in Jurkat cells; assay: flow cytometry, 70 nM antibody on Jurkat/NFAT-luc cells, No IgE
Description: (§1) For flow cytometry analysis, HEK293, HEK293/hFcεR1α/hFcεR1β/hFcεR1γ and HEK293/mf FcεR1α/hFcεR1β/hFcεR1γ cells were collected after dissociation using Enzyme Free Dissociation Buffer (Millipore Cat# S-004), and the cells were pre-incubated with or without 70 nM human IgE, for 30 minutes on ice in FACS buffer (PBS, without Ca⁺⁺ and Mg⁺⁺, (Irvine Scientific, Cat#9240) containing 2% FBS). Jurkat/NFAT-luc cells were also collected. The antibodies at the concentration of 70 nM were then added to 1×10⁶ cells/well of each cell type at 4° C. for 30 minutes. […] Cells were fixed using BD CytoFix™ (Becton Dickinson, Cat. #554655) and analyzed on Accuri™ C6 (BD) or CytoFLEX Flow cytometer (Beckman Coulter). Unstained and secondary antibody alone controls were also tested for all cell lines and a sample was evaluated for viability using the Far Red Fluo viability dye (Thermo Fisher, Cat#L10120) according to the manufacturer's protocol. The results were analyzed using FlowJo software (version 10.0.8, FlowJo) to determine the geometric means of fluorescence for viable cells and the binding ratio was calculated with the mean fluorescence intensity (MFI) of the experimental condition normalized by the MFI of the unstained respective cells.

[4] = target: T3, hFcεR1α.MMH (human); assay: SPR (Biacore 8k), antibody captured on anti-human Fc, hFcεR1α.MMH injected, 25°C
T3 construct: also called ectodomain of human FcεR1α with C-term myc-myc-6×His tag
T3 chain: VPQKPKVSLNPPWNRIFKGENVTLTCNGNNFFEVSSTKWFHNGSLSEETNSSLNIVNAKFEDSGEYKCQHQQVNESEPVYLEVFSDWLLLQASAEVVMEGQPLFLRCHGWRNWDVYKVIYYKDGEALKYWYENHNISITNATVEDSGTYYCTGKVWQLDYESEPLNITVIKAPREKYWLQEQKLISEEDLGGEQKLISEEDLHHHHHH
Description: (§2) Equilibrium dissociation constants (KD) for human or cynomolgus FcεR1α ectodomain binding to purified anti-FcεR1α monoclonal antibodies (mAbs) and CD3×FcεR1α bispecific antibodies (bsAbs) were determined using a real-time surface plasmon resonance biosensor (SPR-Biacore), Biacore 8k. All binding studies were performed in 10 mM HEPES, 150 mM NaCl, 3 mM EDTA, and 0.05% v/v surfactant Tween-20, pH 7.4 (HBS-ET) running buffer at 25° C. and 37° C.
(§3) The Biacore CM4 sensor surface was first derivatized by amine coupling with a monoclonal mouse anti-human Fc antibody to capture approximately 500-900 RUs anti-FcεR1α monoclonal antibodies or anti-CD3×FcεR1α bispecific monoclonal antibodies. 1 RU (response unit) represents 1 pg of protein per mm², as defined by the manufacturer. The ectodomain of human and cynomolgus FcεR1α reagents were expressed with a C-term myc-myc-6×His tag-hFcεR1α.MMH (SEQ ID NO: 57) and mfFcεR1α.MMH (SEQ ID NO: 58). Different concentrations of FcεR1α reagents were prepared in HBS-ET running buffer (600 nM-7.4 nM; serially diluted by 3-fold) and injected over anti-human Fc captured anti-FcεR1α monoclonal antibodies or anti-CD3×FcεR1α bispecific monoclonal antibodies surfaces for 1 minute at a flow rate of 30 μL/minute. The dissociation of bound FcεR1α reagents was monitored for 4 minutes in HBS-ET running buffer. Association (kₐ) and dissociation (kd) rate constants were determined by fitting the real-time binding sensorgrams to a 1:1 binding model with mass transport limitation using Biacore 8k evaluation software. Binding dissociation equilibrium constants (KD) and dissociative half-lives (t½) were calculated from the kinetic rate constants as: […]

[5] = target: T1, human FcεR1α expressed on cells; assay: flow cytometry, 70 nM antibody on HEK293/hFcεR1α/hFcεR1β/hFcεR1γ cells pre-incubated with 70 nM human IgE
Description: as §1

[6] = target: T1, human FcεR1α expressed on cells; assay: cell-based or functional assay; remark: listed apart in the source
[7] = target: T1, human FcεR1α expressed on cells; assay: flow cytometry, 70 nM antibody on HEK293/hFcεR1α/hFcεR1β/hFcεR1γ cells, No IgE
Description: as §1

[8] = target: T4, monkey (cynomolgus) FcεR1α expressed on cells (cynomolgus); assay: flow cytometry, 70 nM antibody on HEK293/mfFcεR1α/hFcεR1β/hFcεR1γ cells, No IgE
T4 construct: range 4-260; On HEK293 cells, co-expressed with human FcεR1β and FcεR1γ; also called mfFcεR1α; HEK293/mfFcεR1α/hFcεR1β/hFcεR1γ cells
Description: as §1

[9] = target: T5, mfFcεR1α.MMH (cynomolgus (Macaca fascicularis)); assay: SPR (Biacore 8k), antibody captured on anti-human Fc, mfFcεR1α.MMH injected, 25°C
T5 construct: also called mfFceR1a.MMH; ectodomain of cynomolgus FcεR1α with C-term myc-myc-6×His tag
T5 chain: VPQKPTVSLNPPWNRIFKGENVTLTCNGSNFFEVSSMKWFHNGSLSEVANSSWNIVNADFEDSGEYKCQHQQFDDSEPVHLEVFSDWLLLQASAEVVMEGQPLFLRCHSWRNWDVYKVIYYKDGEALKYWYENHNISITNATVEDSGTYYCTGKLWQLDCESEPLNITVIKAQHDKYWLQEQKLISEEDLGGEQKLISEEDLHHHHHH
Description: as §2, §3

[10] = target: T5, mfFcεR1α.MMH; assay: SPR (Biacore 8k), antibody captured on anti-human Fc, mfFcεR1α.MMH injected, 37°C
Description: as §2, §3

[11] = target: T4, monkey (cynomolgus) FcεR1α expressed on …; assay: flow cytometry, 70 nM antibody on HEK293/mfFcεR1α/hFcεR1β/hFcεR1γ cells pre-incubated with 70 nM human IgE
Description: as §1

[12] = target: T3, hFcεR1α.MMH; assay: SPR (Biacore 8k), antibody captured on anti-human Fc, hFcεR1α.MMH injected, 37°C
Description: as §2, §3

B1: bsAb24919D (bispecific antibody, human IgG4 S228P, kappa)
heavy 1: QVQLQESGPGLVKPSETLSLTCTVSGDSISDYYWIWIRQPPGKGLEWIGYIYYSGSTNYNPSLKSRVTISVATSKNQFSLKLRSVTAADTAMYYCARRNNWNHVRAFDIWGQGTMVTVSSASTKGPSVFPLAPCSRSTSESTAALGCLVKDYFPEPVTVSWNSGALTSGVHTFPAVLQSSGLYSLSSVVTVPSSSLGTKTYTCNVDHKPSNTKVDKRVESKYGPPCPPCPAPPVAGPSVFLFPPKPKDTLMISRTPEVTCVVVDVSQEDPEVQFNWYVDGVEVHNAKTKPREEQFNSTYRVVSVLTVLHQDWLNGKEYKCKVSNKGLPSSIEKTISKAKGQPREPQVYTLPPSQEEMTKNQVSLTCLVKGFYPSDIAVEWESNGQPENNYKTTPPVLDSDGSFFLYSRLTVDKSRWQEGNVFSCSVMHEALHNHYTQKSLSLSLGK
heavy 2: EVQLVESGGGLVQPGRSLRLSCAASGFTFDDYSMHWVRQAPGKGLEWVSGISWNSGSIGYADSVKGRFTISRDNAKNSLYLQMNSLRAEDTALYYCAKYGSGYGKFYYYGMDVWGQGTTVTVSSASTKGPSVFPLAPCSRSTSESTAALGCLVKDYFPEPVTVSWNSGALTSGVHTFPAVLQSSGLYSLSSVVTVPSSSLGTKTYTCNVDHKPSNTKVDKRVESKYGPPCPPCPAPPVAGPSVFLFPPKPKDTLMISRTPEVTCVVVDVSQEDPEVQFNWYVDGVEVHNAKTKPREEQFNSTYRVVSVLTVLHQDWLNGKEYKCKVSNKGLPSSIEKTISKAKGQPREPQVYTLPPSQEEMTKNQVSLTCLVKGFYPSDIAVEWESNGQPENNYKTTPPVLDSDGSFFLYSRLTVDKSRWQEGNVFSCSVMHEALHNRFTQKSLSLSPGK
light: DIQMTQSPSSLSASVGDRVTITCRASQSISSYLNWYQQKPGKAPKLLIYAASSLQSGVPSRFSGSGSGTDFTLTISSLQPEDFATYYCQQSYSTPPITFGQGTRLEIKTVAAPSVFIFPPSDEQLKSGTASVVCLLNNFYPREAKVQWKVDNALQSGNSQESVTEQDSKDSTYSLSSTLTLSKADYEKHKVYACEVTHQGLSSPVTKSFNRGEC
notes: IgG4 Fc domain; two distinct heavy chains with a common light chain; also called anti-FcεR1α×CD3 bispecific antibody; FcεR1α × hCD3
B1 was tested, and the “EC80, cleaved caspase 3+ cleaved PARP+ HEK293/hFcεR1α/hFcεR1β/hFcεR1γ target cells with activated CD8+ T cells” value [1] was 0.0346 nM, the “Maximum percent apoptotic cells, HEK293/hFcεR1α/hFcεR1β/hFcεR1γ target cells with activated CD8+ T cells” value [1] was 56% and the “EC50 [M], NFAT-luciferase in Jurkat/NFAT-luc with HEK293/hFcεR1α/hFcεR1β/hFcεR1γ cells, 10 nM IgE” value [2] was 1.5e-09 M. For the same binder, the “EC50 [M], NFAT-luciferase in Jurkat/NFAT-luc with HEK293/hFcεR1α/hFcεR1β/hFcεR1γ cells, No IgE” value [2] was 3.4e-10 M, the “Fold Activation, Jurkat/NFAT-luc with HEK293/hFcεR1α/hFcεR1β/hFcεR1γ cells, 10 nM IgE” value [2] was 32 fold and the “Fold Activation, Jurkat/NFAT-luc with HEK293/hFcεR1α/hFcεR1β/hFcεR1γ cells, No IgE” value [2] was 32 fold. The “Binding Ratio (MFI of Treated/MFI of Unstained)” value [3] was 48, the “600 nM hFcεR1α.MMH Bound (RU)” value [4] was 72 RU and the Kd [4] was 152 nM. The koff [4] was 0.0104 s⁻¹, the kon [4] was 68200 M⁻¹ s⁻¹ and the t½ [4] was 66 s. The “Binding Ratio (MFI of Treated/MFI of Unstained)” value [5] was 277, the “EC50, decrease of primary human basophils within PBMC with activated CD8+ T cells” value [6] was 3.75 nM and the “Maximum percent basophil decrease, PBMC with activated CD8+ T cells” value [6] was 90.6%. For the same binder, the “Binding Ratio (MFI of Treated/MFI of Unstained)” value [7] was 269, the “Binding Ratio (MFI of Treated/MFI of Unstained)” value [8] was 166 and the “600 nM mfFceR1a.MMH Bound (RU)” value [9] was 40 RU. For the same binder, the Kd [9] was 363 nM, the koff [9] was 0.0144 s⁻¹ and the kon [9] was 39600 M⁻¹ s⁻¹. The t½ [9] was 48 s, the “600 nM mfFceR1a.MMH Bound (RU)” value [10] was 20 RU and the Kd [10] was 1030 nM. The koff [10] was 0.0399 s⁻¹, the kon [10] was 38600 M⁻¹ s⁻¹ and the t½ [10] was 17.4 s. The “Binding Ratio (MFI of Treated/MFI of Unstained)” value [11] was 236, the “600 nM hFcεR1α.MMH Bound (RU)” value [12] was 43 RU and the Kd [12] was 801 nM. It also gave a koff [12] of 0.0588 s⁻¹, a kon [12] of 73500 M⁻¹ s⁻¹ and a t½ [12] of 12 s.

B2: bsAb24920D (bispecific antibody, human IgG4 S228P, kappa)
heavy 1: B1 heavy 1 with S30N, I35S, I37L, A72D, R83S, M92V, A96T, H103Y
heavy 2: B1 heavy 2
light: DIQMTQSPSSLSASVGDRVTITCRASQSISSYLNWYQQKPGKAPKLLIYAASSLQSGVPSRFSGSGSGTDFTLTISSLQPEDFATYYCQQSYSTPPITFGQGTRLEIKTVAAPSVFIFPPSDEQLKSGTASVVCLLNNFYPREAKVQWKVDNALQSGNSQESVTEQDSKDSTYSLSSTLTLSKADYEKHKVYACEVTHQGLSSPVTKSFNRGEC
notes: as for B1
For B2, the “EC80, cleaved caspase 3+ cleaved PARP+ HEK293/hFcεR1α/hFcεR1β/hFcεR1γ target cells with activated CD8+ T cells” value [1] was 0.126 nM, the “Maximum percent apoptotic cells, HEK293/hFcεR1α/hFcεR1β/hFcεR1γ target cells with activated CD8+ T cells” value [1] was 56.5% and the “EC50 [M], NFAT-luciferase in Jurkat/NFAT-luc with HEK293/hFcεR1α/hFcεR1β/hFcεR1γ cells, 10 nM IgE” value [2] was 4.9e-09 M. For the same binder, the “EC50 [M], NFAT-luciferase in Jurkat/NFAT-luc with HEK293/hFcεR1α/hFcεR1β/hFcεR1γ cells, No IgE” value [2] was 6.8e-10 M, the “Fold Activation, Jurkat/NFAT-luc with HEK293/hFcεR1α/hFcεR1β/hFcεR1γ cells, 10 nM IgE” value [2] was 25 fold and the “Fold Activation, Jurkat/NFAT-luc with HEK293/hFcεR1α/hFcεR1β/hFcεR1γ cells, No IgE” value [2] was 23 fold. The “Binding Ratio (MFI of Treated/MFI of Unstained)” value [3] was 48, the “600 nM hFcεR1α.MMH Bound (RU)” value [4] was 46 RU and the Kd [4] was 303 nM. It also gave a koff [4] of 0.02 s⁻¹, a kon [4] of 65900 M⁻¹ s⁻¹ and a t½ [4] of 36 s. For the same binder, the “Binding Ratio (MFI of Treated/MFI of Unstained)” value [5] was 201, the “EC50, decrease of primary human basophils within PBMC with activated CD8+ T cells” value [6] was 20 nM and the “Maximum percent basophil decrease, PBMC with activated CD8+ T cells” value [6] was 80.1%. The “Binding Ratio (MFI of Treated/MFI of Unstained)” value [7] was 248, the “Binding Ratio (MFI of Treated/MFI of Unstained)” value [8] was 142 and the “600 nM mfFceR1a.MMH Bound (RU)” value [9] was 26 RU. The Kd [9] was 467 nM, the koff [9] was 0.0195 s⁻¹ and the kon [9] was 41700 M⁻¹ s⁻¹. The t½ [9] was 36 s, the “600 nM mfFceR1a.MMH Bound (RU)” value [10] was 10 RU and the Kd [10] was 3350 nM. The koff [10] was 0.0445 s⁻¹, the kon [10] was 13300 M⁻¹ s⁻¹ and the t½ [10] was 15.6 s. For the same binder, the “Binding Ratio (MFI of Treated/MFI of Unstained)” value [11] was 169, the “600 nM hFcεR1α.MMH Bound (RU)” value [12] was 19 RU and the Kd [12] was 1550 nM. The koff [12] was 0.0991 s⁻¹, the kon [12] was 63900 M⁻¹ s⁻¹ and the t½ [12] was 7.2 s.
